The target in experiment [1] is acetylcholine receptor. Put plainly: SPR, receptor immobilised on chip, peptide at 10 µM.
The target of experiment [2] is acetylcholine receptor. Kind of experiment: SPR, acetylcholine receptor on CM5 chip, peptide at 10 uM.

Experimental findings from US20250011363A1, “OPTIMIZED SHORTENED PEPTIDE THAT BINDS TO ACETYLCHOLINE RECEPTOR, AND USE THEREOF” (SKINMED CO., LTD., priority 2021, published 2025) are described below.

KVIYKR [6mer-2-531]: in the experiment with acetylcholine receptor [1], the Binding affinity came out at 148 RU.

In the experiment with acetylcholine receptor [1], RSYSKR [6mer-2-530] showed a Binding affinity of 139 RU.

On to KGFRKK [6mer-2-528], for which the Binding affinity with acetylcholine receptor [1] came out at 151 RU.

On to KSYTRR [6mer-2-497], for which the Binding affinity with acetylcholine receptor [1] turned out to be 148 RU.

RRGLCK [6mer-1-537]: the Binding affinity (RU) with acetylcholine receptor [2] is 154 RU.

RVQLRR [6mer-2-534] gave a Binding affinity with acetylcholine receptor [1] of 139 RU.

The molecule RLIQKK [6mer-2-492] had a Binding affinity with acetylcholine receptor [1] of 148 RU.

RGQTRR [6mer-2-527]: in the experiment with acetylcholine receptor [1], the Binding affinity came to 145 RU.

As for RGIQKR [6mer-2-524], the Binding affinity in the experiment with acetylcholine receptor [1] stood at 128 RU.

In turn, RKRYRK [6mer-1-552] gave a Binding affinity (RU) in the experiment with acetylcholine receptor [2] of 144 RU.

With RRLTRK [6mer-2-513], the Binding affinity with acetylcholine receptor [1] turned out to be 121 RU.

On to KSITKR [6mer-2-532], for which the Binding affinity with acetylcholine receptor [1] was 147 RU.

Take KRVLKK [6mer-2-510]: the Binding affinity with acetylcholine receptor [1] is 146 RU.

For the molecule KRQCKK [6mer-2-505], the Binding affinity with acetylcholine receptor [1] is 148 RU.

As for RRSVCK [6mer-1-543], the Binding affinity (RU) with acetylcholine receptor [2] came to 145 RU.

In the experiment with acetylcholine receptor [1], RVVLRK [6mer-2-522] returned a Binding affinity of 124 RU.

In turn, RRLICR [6mer-1-550] gave a Binding affinity (RU) in the experiment with acetylcholine receptor [2] of 148 RU.

RLFTKR [6mer-2-499] gave a Binding affinity in the experiment with acetylcholine receptor [1] of 145 RU.

Take RRVILK [6mer-1-535]: the Binding affinity (RU) in the experiment with acetylcholine receptor [2] stood at 139 RU.

In the experiment with acetylcholine receptor [2], KRVICR [6mer-1-544] had a Binding affinity (RU) of 149 RU.

In the experiment with acetylcholine receptor [1], RGICKR [6mer-2-507] yielded a Binding affinity of 145 RU.

Turning to KSFCKR [6mer-2-502], the Binding affinity with acetylcholine receptor [1] is 144 RU.

In the experiment with acetylcholine receptor [2], RKLVQR [6mer-1-546] gave a Binding affinity (RU) of 123 RU.

For KGVRRK [6mer-2-493], the Binding affinity in the experiment with acetylcholine receptor [1] amounted to 123 RU.

Turning to KSYSKK [6mer-2-501], the Binding affinity with acetylcholine receptor [1] turned out to be 144 RU.

KRGRLR [6mer-1-551] displayed a Binding affinity (RU) with acetylcholine receptor [2] of 142 RU.

RRSYRK [6mer-1-545] displayed a Binding affinity (RU) with acetylcholine receptor [2] of 127 RU.

Turning to RVRYRK [6mer-2-496], the Binding affinity with acetylcholine receptor [1] worked out at 144 RU.

As for RRGVRK [6mer-1-553], the Binding affinity (RU) in the experiment with acetylcholine receptor [2] amounted to 128 RU.

RQQQKK [6mer-2-516] gave a Binding affinity in the experiment with acetylcholine receptor [1] of 146 RU.

On to KRICRR [6mer-2-500], for which the Binding affinity in the experiment with acetylcholine receptor [1] turned out to be 146 RU.

Regarding KKWYLK [6mer-1-555], the Binding affinity (RU) with acetylcholine receptor [2] came to 128 RU.

In the experiment with acetylcholine receptor [2], RRVYSR [6mer-1-548] came in with a Binding affinity (RU) of 123 RU.

KRGIRK [6mer-1-539]: the Binding affinity (RU) with acetylcholine receptor [2] stood at 148 RU.

With KRLLKR [6mer-2-533], the Binding affinity with acetylcholine receptor [1] came out at 142 RU.

RRWFRK [6mer-1-536] came in with a Binding affinity (RU) with acetylcholine receptor [2] of 151 RU.

In the case of KLRTKK [6mer-2-517], in the experiment with acetylcholine receptor [1], the Binding affinity came out at 153 RU.

Turning to KKSYQR [6mer-1-549], the Binding affinity (RU) with acetylcholine receptor [2] was determined as 142 RU.

Take KGLLRR [6mer-2-494]: in the experiment with acetylcholine receptor [1], the Binding affinity was determined as 144 RU.

In the experiment with acetylcholine receptor [1], KSYCKR [6mer-2-520] yielded a Binding affinity of 144 RU.

Turning to RRRLTK [6mer-1-559], the Binding affinity (RU) in the experiment with acetylcholine receptor [2] turned out to be 139 RU.

For the molecule RVISKK [6mer-2-489], the Binding affinity in the experiment with acetylcholine receptor [1] was 142 RU.

RWFTRR [6mer-2-512] came in with a Binding affinity with acetylcholine receptor [1] of 148 RU.

In the experiment with acetylcholine receptor [1], RWYCRK [6mer-2-515] returned a Binding affinity of 123 RU.

For the molecule KLVTKK [6mer-2-518], in the experiment with acetylcholine receptor [1], the Binding affinity was found to be 151 RU.

Take KRQVQK [6mer-1-557]: in the experiment with acetylcholine receptor [2], the Binding affinity (RU) was 128 RU.

Turning to KGLQKK [6mer-2-514], the Binding affinity with acetylcholine receptor [1] was determined as 124 RU.

With RGRYKR [6mer-2-523], in the experiment with acetylcholine receptor [1], the Binding affinity came to 146 RU.

RVLLRK [6mer-2-526] came in with a Binding affinity with acetylcholine receptor [1] of 144 RU.

Regarding RGLTRK [6mer-2-504], the Binding affinity with acetylcholine receptor [1] came to 154 RU.

The molecule KSLLKK [6mer-2-506] showed a Binding affinity in the experiment with acetylcholine receptor [1] of 135 RU.

Take KVQTKK [6mer-2-503]: the Binding affinity with acetylcholine receptor [1] came out at 154 RU.

In the case of RKWFTR [6mer-1-541], in the experiment with acetylcholine receptor [2], the Binding affinity (RU) came out at 136 RU.

Regarding RKVQQR [6mer-1-547], the Binding affinity (RU) in the experiment with acetylcholine receptor [2] was 148 RU.

In the experiment with acetylcholine receptor [1], RRYQKK [6mer-2-490] showed a Binding affinity of 145 RU.

In the experiment with acetylcholine receptor [1], RVFLKK [6mer-2-508] returned a Binding affinity of 121 RU.

RRLIQR [6mer-1-558]: in the experiment with acetylcholine receptor [2], the Binding affinity (RU) was 139 RU.

With RVFCRR [6mer-2-511], in the experiment with acetylcholine receptor [1], the Binding affinity was 126 RU.

RRSQCK [6mer-1-538] displayed a Binding affinity (RU) in the experiment with acetylcholine receptor [2] of 142 RU.

With KKGFTK [6mer-1-556], in the experiment with acetylcholine receptor [2], the Binding affinity (RU) came to 145 RU.

For KLLCKK [6mer-2-495], in the experiment with acetylcholine receptor [1], the Binding affinity is 121 RU.

As for RGFYRK [6mer-2-509], in the experiment with acetylcholine receptor [1], the Binding affinity was determined as 136 RU.

In the experiment with acetylcholine receptor [1], KQYTRK [6mer-2-521] displayed a Binding affinity of 144 RU.

Turning to KRICKR [6mer-2-491], the Binding affinity with acetylcholine receptor [1] stood at 135 RU.

For KRSVTR [6mer-1-554], the Binding affinity (RU) with acetylcholine receptor [2] came out at 131 RU.

Regarding KRVQTR [6mer-1-540], the Binding affinity (RU) with acetylcholine receptor [2] was determined as 128 RU.

The molecule KGLCRR [6mer-2-498] yielded a Binding affinity with acetylcholine receptor [1] of 127 RU.

KRWFRR [6mer-1-542] displayed a Binding affinity (RU) in the experiment with acetylcholine receptor [2] of 128 RU.

In the experiment with acetylcholine receptor [1], KWVRKK [6mer-2-525] displayed a Binding affinity of 145 RU.

Take KQIQRR [6mer-2-519]: the Binding affinity with acetylcholine receptor [1] worked out at 135 RU.

In the case of KQQRKR [6mer-2-529], in the experiment with acetylcholine receptor [1], the Binding affinity worked out at 124 RU.
